This is an account of results in the supplement of paper PMC10567573.

This data set is described as follows: protein stability index of a GFP-peptide fusion (GPS, HEK-293T) (PSI 1-6); higher = more stable.
[1] abbreviates: treatment: DMSO, c terminus: a fixed tail appended.
Where [2] appears, read: treatment: MLN4924 1 uM, 8 h, c terminus: a fixed tail appended.

± gives the standard deviation.
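Also: 24-mer peptide tiles fused after GFP, lentivirally expressed, FACS-sorted into six equal bins by GFP/DsRed ratio, decoded by Illumina sequencing, PSI is the read-weighted mean bin number.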

TKDPDVAFHGLSLGLSLTNGLALG [PSD2]: the protein stability index was found to be 2.46 ± 0.21 under setting [1] and 2.43 ± 0.25 under setting [2].
For LMCGGIAFWSLVTLGSSFIPGEHF [SPNS1], the protein stability index by setting is: under setting [1], 3.21 ± 0.64; under setting [2], 3.18 ± 0.21.
For VKQEEDIKPPPPLVLNSQQSDTLE [RAD54B], the protein stability index was 5.42 ± 0.22 under setting [1] and 5.39 ± 0.33 under setting [2].
The corresponding values for LKSDLEKASALNTKIRALQGSLEN [CD207] are 3.91 ± 0.26 and 3.73 ± 0.66.
For HPGFKDNVYRKRRKYFADLAMNYK [TPH1] the same measures were 2.61 ± 0.23 and 3.01 ± 0.48.
With EVPTAAGALTPTPAPTTTTATREE [CLPTM1], the protein stability index was determined as 5.42 ± 0.27 under setting [1] and 5.44 ± 0.39 under setting [2].
For TQRQYKEDESQSEEENDYRNLDAS [CEP70] the same measures were 5.41 ± 0.25 and 5.51 ± 0.6.
For RKDVGCNRFEVTLEKSNKNFSKKI [VPS39] the same measures were 3.62 ± 0.22 and 3.98 ± 0.2.
Consider MHDAFEPVPILEKLPLQIDCLAAW [VPS39], for which the protein stability index stood at 2.56 ± 0.34 under setting [1] and 2.56 ± 0.27 under setting [2].
Turning to NQGFLKVERYHNLCQKQVKAQLPR [FBXO28], the protein stability index was found to be 2.76 ± 0.47 under setting [1] and 2.64 ± 0.45 under setting [2].
With RGFCAFLGSWLVPFAYLTVLDLSK [POMT2], the protein stability index was 3.24 ± 0.7 under setting [1] and 3.16 ± 0.25 under setting [2].
For RIKGVEVFCPLDPPPPYEAVVSQM [FAM189A2] the same measures were 2.83 ± 0.33 and 2.88 ± 0.22.
Consider AFAERYAPDKTSTVLTRHSQPATP [PDLIM7], for which the protein stability index is 4 ± 0.3 under setting [1] and 3.82 ± 0.18 under setting [2].
For PYKCPECGKSFSRSSHLVIHERTH [ZNF263] the same measures were 3.23 ± 0.54 and 3.28 ± 0.64.
For VLSESSGPSNTSHSSSRDSHLSNG [C2CD2L] the same measures were 4.96 ± 0.28 and 5 ± 0.13.
Consider LGSVQFMEQFCWPHLRSFCETCVG, for which the protein stability index runs as follows: under setting [1], 2.39 ± 0.29; under setting [2], 2.21 ± 0.41.
The corresponding values for LSPEVLRKDPYGKPVDMWACGVIL [CAMK2D] are 2.74 ± 0.55 and 2.14 ± 0.71.
Regarding FEFLYNALEFWRQEELTRINQSFT [IQUB], the protein stability index runs as follows: under setting [1], 2.13 ± 0.54; under setting [2], 2.45 ± 0.74.
For SWSAGLHNRYTENSLRGVILDIHF [FUT8] the same measures were 2.88 ± 0.67 and 2.86 ± 0.73.
For HRLMTDARRRVCHTEDFQKEEGTV [CPXM2] the same measures were 4.76 ± 0.26 and 4.8 ± 0.24.
With NDYIVPRHCPELAEMSRVSIRILD [HNF4A], the protein stability index was determined as 3.08 ± 0.19 under setting [1] and 3.29 ± 0.24 under setting [2].
Turning to QRLLNTPRRKKLKSTSKYIYQTLF [GMCL1], the protein stability index stood at 2.08 ± 0.73 under setting [1] and 1.75 ± 0.46 under setting [2].
For KKPPVTFAEKGELRKSIFSESRKP [TRIM29] the same measures were 4.13 ± 0.23 and 4.19 ± 0.19.
For DQDDRRTWDGRPLTMAATFDDCLY [GFOD1] the same measures were 3.74 ± 0.34 and 3.99 ± 0.22.
The corresponding values for ALPSVMRFCCCVAVIYLGYCFCGW [MCOLN1] are 2.76 ± 0.59 and 2.83 ± 0.31.
Consider YHAVVEPMLWNPSGTPKRYSLELG [C22orf31], for which the protein stability index came out at 2.77 ± 0.54 under setting [1] and 2.81 ± 0.17 under setting [2].
For VRLDRVRGGRQKYKRRIDAENSPY [ESRRG] the same measures were 3.81 ± 0.25 and 3.75 ± 0.052.
For EDGKTCRRKDVCQAIDHGCEHICV [MATN2] the same measures were 3.82 ± 0.2 and 4.24 ± 0.28.
The corresponding values for SGGITHDTFQKELMCFDPDTDKWI [KLHL13] are 3.94 ± 0.16 and 4.17 ± 0.25.
As for ASQSPKKPPAKDPLADLNIKDFL [SNAP91], the protein stability index reads like this: (treatment: DMSO, c terminus: native) 4.45 ± 0.29; (treatment: MLN4924 1 uM, 8 h, c terminus: native) 4.58 ± 0.34.
Take DPACYEFLWGPRALIETSYVKVLH [MAGEA6]: the protein stability index is, setting by setting: under setting [1], 2.26 ± 0.78; under setting [2], 2.21 ± 0.22.
The corresponding values for RRHPQGAWKELDRNYLNYGEEGAP [CHGB] are 4.05 ± 0.28 and 4.1 ± 0.34.
The corresponding values for TCLMMDMKACQEDDVRLLCHLTPS [INTS3] are 2.69 ± 0.17 and 2.73 ± 0.33.
For EARPIETYQVHDYLRSKLCSLYEN [PPP2R2C], the protein stability index by setting is: under setting [1], 2.7 ± 0.19; under setting [2], 3.02 ± 0.33.
Take KRYGLGAHRGRLNIQAGINENDFY [CPXM2]: the protein stability index stood at 2.45 ± 0.44 under setting [1] and 2.61 ± 0.28 under setting [2].
The corresponding values for PANCPACREPSPKMDFKTNILLKN [TRIM43] are 3.38 ± 0.25 and 3.52 ± 0.21.
Take FVLLCFAIGALLVCYHYYADWFMS [TMEM40]: the protein stability index under setting [1] worked out at 2.16 ± 0.31 and the protein stability index under setting [2] came to 2.19 ± 0.39.
For VLSILHATLPGIFMLLLIFFAFLH [SOAT2] the same measures were 2.87 ± 0.32 and 3.17 ± 0.41.
For EHPEALSCLLLQLRREKPSEEMVK [INTS3] the same measures were 3.38 ± 0.43 and 3.57 ± 0.26.
For VAGNPQDTRLRYSFFVPRPTPSTP [ADAMTS4] the same measures were 3.11 ± 0.36 and 3.18 ± 0.25.
Turning to QLLWREFFYTAATNNPRFDKMEGN [CRY1], the protein stability index by setting is: under setting [1], 2.02 ± 0.23; under setting [2], 2 ± 0.38.
For LQRVLQNCPWPMSCPGSSYRTVVR [EMID1] the same measures were 2.49 ± 0.27 and 2.74 ± 0.74.
The corresponding values for GRPIPGTSTRYEQPKCDNTARAHP [SMOC2] are 4.76 ± 0.4 and 4.78 ± 0.18.
The corresponding values for NSSPRVMQRKQSLGKPDQKDLNEN [DLC1] are 5.09 ± 0.18 and 4.88 ± 0.28.
In the case of NQLSQAELDELASKAPVLTYGQPK [EFHC1], the protein stability index by setting is: under setting [1], 4.78 ± 0.11; under setting [2], 4.79 ± 0.072.
In the case of CWSRDGHKLVSASTDNIVSQWDVL [RBBP5], the protein stability index came to 2.81 ± 0.12 under setting [1] and 2.87 ± 0.18 under setting [2].
The corresponding values for EGAQLGENKPSTCSFSIERILGLD [HESX1] are 2.92 ± 0.18 and 3.11 ± 0.1.
For KNSMENGRPPDPADWAVMDVVNYF [SAMD13] the same measures were 3.3 ± 0.26 and 3.28 ± 0.2.
KKRMRYFDPLRNEYFFDRNRPSFD [KCNA1]: the protein stability index worked out at 2.47 ± 0.44 under setting [1] and 2.83 ± 0.19 under setting [2].
The corresponding values for SPKELKRRNSSSSMSSRLSIYDNV [DLC1] are 3.92 ± 0.32 and 3.94 ± 0.39.
The corresponding values for LPERRGTCADRDNLTRRFSDLGFE [CASP6] are 3.16 ± 0.21 and 3.09 ± 0.086.
The corresponding values for RFALIPAPELVERVQSVDFMRTDP [KLHL14] are 3.26 ± 0.17 and 3.26 ± 0.18.
Turning to PKARKQGVSPADMYRWKLSSHEPC [ADAMTSL2], the protein stability index is, setting by setting: under setting [1], 2.94 ± 0.27; under setting [2], 3.25 ± 0.14.
In the case of DQNNVIENEETGEFSIDNYPTDNT [MIA2], the protein stability index runs as follows: under setting [1], 5.21 ± 0.74; under setting [2], 5.5 ± 0.17.
Consider KVWSLTGQVAEDRFPESHLPIQTP [TLE6], for which the protein stability index runs as follows: under setting [1], 3.58 ± 0.21; under setting [2], 3.47 ± 0.39.
RKRLAREMQLSEVQIKTWFQNRRM [VENTX]: the protein stability index was determined as 2.67 ± 0.24 under setting [1] and 2.73 ± 0.41 under setting [2].
Consider WICQRSTVASMMHRQETVDCLKKF [CAMK2D], for which the protein stability index was found to be 2.67 ± 0.15 under setting [1] and 2.43 ± 0.64 under setting [2].
Sequence LIGDTLLVAPVLEPGKQERDVYLP [MYORG] displayed a protein stability index under setting [1] of 3.23 ± 0.12 and a protein stability index under setting [2] of 3.03 ± 0.22.
The corresponding values for DRFQVPTTEVNAWLVHRDPEGSVS [NFE2L1] are 3.842 ± 0.034 and 4.5 ± 0.063.
As for EKYGRAHPVFYQGTYSQALNDAKR [FAF2], the protein stability index amounted to 3.28 ± 0.15 under setting [1] and 3.47 ± 0.37 under setting [2].
The corresponding values for GLDGYRGYSLADWVCLAYFTSGFN [SPACA3] are 3.1 ± 1.2 and 2.81 ± 0.7.
For STSSSTQGDPAFPEMNGNGAVAPM [NOL4L] the same measures were 4.93 ± 0.34 and 5.05 ± 0.054.
For LPAEVAGLSQVLLRGGGQVLLGWT [POMT2] the same measures were 2.26 ± 0.54 and 2.26 ± 0.14.
Regarding DSDFRELHTAREFSEEDEEETTSQ [RTN2], the protein stability index by setting is: under setting [1], 5.64 ± 0.17; under setting [2], 5.5 ± 0.17.
Regarding KVVEAHKIVLCAVSHVFMLLFNVK [RHOBTB3], the protein stability index runs as follows: under setting [1], 2.81 ± 0.64; under setting [2], 3.07 ± 0.46.
Turning to VKDEAHQAQKDPKKDRPLARRKSE [PPP2R5C], the protein stability index is, setting by setting: under setting [1], 5.55 ± 0.25; under setting [2], 5.43 ± 0.22.
As for ELYVFGGVRSREDAQGSEMVTCKS [GAN], the protein stability index amounted to 4.08 ± 0.38 under setting [1] and 4.15 ± 0.34 under setting [2].
As to LTDDKQVLNTQGQKTSGQHMIQGA [DLC1], the protein stability index by setting is: under setting [1], 5.06 ± 0.2; under setting [2], 5.04 ± 0.14.
As for DAPVPDCLGVHCDFHQGLLSFYNA [FSD1], the protein stability index was 2.41 ± 0.094 under setting [1] and 2.52 ± 0.26 under setting [2].
On to RPCRKFLLTGQCDFGSNCRFSHMS [ZMAT5], for which the protein stability index runs as follows: under setting [1], 4.2 ± 0.74; under setting [2], 4.28 ± 0.58.
For YNPHPGFPELGYSYGGGSASSQHS [DVL3] the same measures were 2.95 ± 0.36 and 3.29 ± 0.26.
With ACCEFLESQLDPSNCLGIRDFAET [KLHL12], the protein stability index under setting [1] amounted to 2.79 ± 0.37 and the protein stability index under setting [2] worked out at 3 ± 0.5.
